Reference: PMC6144805

Molecular target: RecQ-ΔΔC (E. coli RecQ variant lacking both the WH and HRDC domains) (Escherichia coli)

Sequence of E. coli ssDNA-binding protein (SSB) (P0AGE0 whole entry): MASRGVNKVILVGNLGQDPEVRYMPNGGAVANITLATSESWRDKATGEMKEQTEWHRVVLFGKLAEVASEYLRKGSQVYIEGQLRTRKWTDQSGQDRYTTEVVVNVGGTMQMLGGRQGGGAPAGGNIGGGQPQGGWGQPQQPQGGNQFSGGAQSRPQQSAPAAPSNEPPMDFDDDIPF

average unwinding processivity of RecQ-ΔΔC with SSB: 2.5 kb
Substance: E. coli ssDNA-binding protein (SSB) (from UniProt P0AGE0 1-178) (natural protein)
